Patent US8048659

How the values were obtained:
[1] = target: T1, EuMac-Peptide-PEGA beads (Formula XII)
T1 chain: CWKKKPAPFAAA

[2] = target: T2, H-Cys(Npys)-Trp-Lys-Lys-Lys-Pro-Ala-Pro-Phe-Ala-Ala-Ala-LC-PEGA resin
T2 chain: CWKKKPAPFAAA

B1: Proteinase K Molecular Biology, SIGMA Catalog No. P-4850 (protein)
chain: AAQTNAPWGLARISSTSPGTSTYYYDESAGQGSCVYVIDTGIEASHPEFEGRAQMVKTYYYSSRDGNGHGTHCAGTVGSRTYGVAKKTQLFGVKVLDDNGSGQYSTIIAGMDFVASDKNNRNCPKGVVASLSLGGGYSSSVNSAAARLQSSGVMVAVAAGNNNADARNYSPASEPSVCTVGASDRYDRRSSFSNYGSVLDIFGPGTSILSTWIGGSTRSISGTSMATPHVAGLAAYLMTLGKTTAASACRYIADTANKGDLSNIPFGTVNLLAYNNYQA
- absorbance of supernatant at 280 nm after hydrolysis at pH 8.0, 25.5 ug/mL Proteinase K [1]: the Proteinase K did release a cleavage product containing tryptophan from the EuMac-Peptide-PEGA-Beads
- luminescence of beads before and after 115 min of Proteinase K hydrolysis [1]: The drastic difference in luminescence before and after Proteinase K hydrolysis demonstrated that the EuMac-labeled part of the peptide was released from the bead
- absorbance of supernatant (275 nm and 350 nm peaks) after hydrolysis at pH 7.1, 15.1 ug/mL Proteinase K [2]: the release of the free peptide was much greater for the Proteinase K sample
- absorbance of supernatant with time after hydrolysis at pH 8.01, 14.2 and 28.4 ug/mL Proteinase K [2]: demonstrate that Proteinase K cleaves a peptide from the Peptide-PEGA-Beads
- ratio of cleaved peptide, 28.4 vs. 14.2 ug/mL Proteinase K (absorbance at 280 nm) [2]: The doubling, of the enzyme concentration resulted in an approximately 1.3 fold increase in cleaved peptide
